PMC3333870

Biological target: T1, rLin28 (Lin28) (UniProt Q9H9Z2 1-209)
T1 sequence: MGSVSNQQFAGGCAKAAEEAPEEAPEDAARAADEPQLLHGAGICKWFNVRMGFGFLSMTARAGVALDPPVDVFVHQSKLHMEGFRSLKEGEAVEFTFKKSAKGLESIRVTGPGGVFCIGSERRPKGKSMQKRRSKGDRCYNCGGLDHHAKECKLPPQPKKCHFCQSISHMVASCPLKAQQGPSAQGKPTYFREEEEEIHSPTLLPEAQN
Experiment: EMSA

B1: pre-let-7a-1 (structured_RNA)
RNA: GGGCUGAGGUAGUAGGUUGUAUAGUUUUAGGGUCACACCCACCACUGGGAGAUAACUAUACAAUCUACUGUCUUUCC
Q: With B1 as the binder, how does the Kd read?
A: 1990 nM
